{
  "source": "IntAct's records for PubMed 23737971",
  "parents": {"B1": {"name": "Ras-related protein Rab-6B (Homo sapiens), Q9NRW1 (parent)", "chain": "MSAGGDFGNPLRKFKLVFLGEQSVGKTSLITRFMYDSFDNTYQATIGIDFLSKTMYLEDRTVRLQLWDTAGQERFRSLIPSYIRDSTVAVVVYDITNLNSFQQTSKWIDDVRTERGSDVIIMLVGNKTDLADKRQITIEEGEQRAKELSVMFIETSAKTGYNVKQLFRRVASALPGMENVQEKSKEGMIDIKLDKPQEPPASEGGCSC", "partner": "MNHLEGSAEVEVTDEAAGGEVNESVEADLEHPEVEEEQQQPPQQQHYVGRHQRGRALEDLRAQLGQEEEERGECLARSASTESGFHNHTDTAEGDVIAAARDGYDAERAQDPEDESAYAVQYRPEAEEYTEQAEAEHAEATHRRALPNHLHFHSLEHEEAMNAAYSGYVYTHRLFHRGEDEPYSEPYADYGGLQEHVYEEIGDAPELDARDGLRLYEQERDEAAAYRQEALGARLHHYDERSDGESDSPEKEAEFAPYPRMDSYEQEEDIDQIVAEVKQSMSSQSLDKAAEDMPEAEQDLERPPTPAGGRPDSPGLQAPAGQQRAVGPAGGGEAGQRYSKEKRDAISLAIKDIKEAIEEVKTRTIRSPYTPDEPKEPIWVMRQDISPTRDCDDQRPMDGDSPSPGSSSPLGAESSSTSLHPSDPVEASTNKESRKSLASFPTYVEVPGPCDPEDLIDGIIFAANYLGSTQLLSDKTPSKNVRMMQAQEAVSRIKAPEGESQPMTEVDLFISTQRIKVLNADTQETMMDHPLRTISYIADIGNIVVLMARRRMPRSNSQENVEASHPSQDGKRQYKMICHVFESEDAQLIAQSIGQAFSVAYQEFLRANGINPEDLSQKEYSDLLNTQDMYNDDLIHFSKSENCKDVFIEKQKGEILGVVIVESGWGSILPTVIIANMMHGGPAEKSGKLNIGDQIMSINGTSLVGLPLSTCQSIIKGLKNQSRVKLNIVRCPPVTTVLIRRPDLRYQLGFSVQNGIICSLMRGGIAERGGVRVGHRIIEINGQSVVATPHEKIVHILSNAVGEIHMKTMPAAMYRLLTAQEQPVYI"}, "B2": {"name": "Ras-related protein Rab-6A (Homo sapiens), P20340-1 (parent)", "chain": "MSTGGDFGNPLRKFKLVFLGEQSVGKTSLITRFMYDSFDNTYQATIGIDFLSKTMYLEDRTVRLQLWDTAGQERFRSLIPSYIRDSTVAVVVYDITNVNSFQQTTKWIDDVRTERGSDVIIMLVGNKTDLADKRQVSIEEGERKAKELNVMFIETSAKAGYNVKQLFRRVAAALPGMESTQDRSREDMIDIKLEKPQEQPVSEGGCSC", "partner": "B1 partner"}, "B3": {"name": "Ras-related protein Rab-6A (Homo sapiens), P20340-1 (parent)", "chain": "B2 chain", "partner": "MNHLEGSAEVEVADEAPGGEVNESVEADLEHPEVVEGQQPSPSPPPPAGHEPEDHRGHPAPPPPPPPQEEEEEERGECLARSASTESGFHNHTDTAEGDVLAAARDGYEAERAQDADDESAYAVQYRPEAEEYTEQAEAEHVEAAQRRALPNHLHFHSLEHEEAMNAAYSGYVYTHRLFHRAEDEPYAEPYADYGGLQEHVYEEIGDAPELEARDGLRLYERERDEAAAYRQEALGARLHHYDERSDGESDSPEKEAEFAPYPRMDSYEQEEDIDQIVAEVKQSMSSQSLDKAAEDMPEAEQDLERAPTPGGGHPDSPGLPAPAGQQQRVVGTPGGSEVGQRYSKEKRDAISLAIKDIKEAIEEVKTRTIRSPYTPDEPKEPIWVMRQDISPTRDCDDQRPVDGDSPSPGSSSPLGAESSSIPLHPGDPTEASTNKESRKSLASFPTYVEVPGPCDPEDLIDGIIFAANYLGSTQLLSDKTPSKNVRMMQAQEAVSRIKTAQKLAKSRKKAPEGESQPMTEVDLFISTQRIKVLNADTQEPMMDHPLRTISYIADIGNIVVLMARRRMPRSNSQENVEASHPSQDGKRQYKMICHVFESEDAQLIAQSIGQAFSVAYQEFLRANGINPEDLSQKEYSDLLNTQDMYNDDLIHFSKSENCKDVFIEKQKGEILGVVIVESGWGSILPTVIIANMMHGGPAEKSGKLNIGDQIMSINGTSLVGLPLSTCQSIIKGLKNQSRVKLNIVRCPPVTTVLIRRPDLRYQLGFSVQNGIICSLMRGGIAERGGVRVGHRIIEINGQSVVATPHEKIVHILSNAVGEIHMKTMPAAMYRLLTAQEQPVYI"}},
  "data": [
    {"variants_of": "B1", "details": "with APBA1, Q02410-2", "values": [
      {"variant": "T27N", "effect of a mutation on the interaction": "disrupting interaction"}
    ]},
    {"variants_of": "B2", "details": "with APBA1, Q02410-2", "values": [
      {"variant": "T27N", "effect of a mutation on the interaction": "disrupting interaction"}
    ]},
    {"variants_of": "B3", "details": "with apba1_mouse Apba1, B2RUJ5", "values": [
      {"variant": "T27N", "effect of a mutation on the interaction": "disrupting interaction"}
    ]}
  ]
}
